Here are results for two molecules from US20250145716A1 (RAKUTEN MEDICAL, published 2025).

The target of experiment [1] is T1, PD-L1-His (Acro Cat PDL-H5229) (human, UniProt Q9NZQ7 19-238).
T1 construct: also called human PD-L1 (SPR analyte); not shown: His tag
Kind of experiment: SPR (Biacore 4000), antibody captured on anti-human CM4 chip, PD-L1-His analyte, 25° C. The protocol:
(§1) The binding affinities of the generated antibodies to human PD-L1 were determined by surface plasmon resonance. […] PD-L1-His (Acro Cat PDL-H5229) was tested for binding in a 3-fold titration series up to 100 nM. Data were collected in HBS-P (pH 7.4) at 37° C. and 25° C.

Experiment [2] addresses T2, 6xHis-tagged cyPD-L1 (cynomolgus monkey, UniProt Q9NZQ7 19-238 (human entry)).
T2 construct: The assay text says only '6xHis-tagged cyPD-L1'; also called cynomolgus PD-L1; not shown: 6xHis tag
Kind of experiment: ELISA, plate-coated 6xHis cyPD-L1, OD 450 nm. Here is the method:
(§2) Hybridoma supernatants were tested for binding to huPD-L1, cyPD-L1, and muPD-L1 by ELISA. Briefly, 30 μL 6xHis-tagged huPD-L1, cyPD-L1, or muPD-L1 (1 μg/mL in PBS) were immobilized in wells of a 96-well assay plate overnight at 4° C. After washing and blocking steps, 30 μL of antibody supernatant were added to the plate and incubated at room temperature for 1 hr. Bound human antibody was detected using horseradish peroxidase (HRP)-conjugated goat anti-human Fc (Invitrogen Cat. No. 109-035-097; diluted 1:5000) or goat anti-mouse Fc HRP (Invitrogen Cat. No. 115-035-071) as a control. Bound antibody was detected with 1-Step Ultra™ TMB-ELISA Substrate (ThermoFisher Scientific Cat. No. 34029). When the reaction was complete the reaction was stopped, and the plate was read at 450 nm.
(§3) Anti-PD-L1 antibodies, described in Example 1A and manufactured substantially as described in Example 1B, were tested for to huPD-L1 and cyPD-L1 by ELISA substantially as described in Example 1A, using 12 dilutions of antibody ranging from 1 ng/ml to 3 mg/mL.

In experiment [3] the target is T3, human PD-L1 expressed on cells (human, UniProt Q9NZQ7 19-290). Kind of experiment: cell-based or functional assay.
For experiment [4], the target named is T4, 6xHis-tagged huPD-L1 (human, UniProt Q9NZQ7 19-238).
T4 construct: also called human PD-L1 (RD Systems 9049-B7); extracellular domain of human PD-L1 fused to a His tag; not shown: 6xHis tag
The experiment in a line: ELISA, plate-coated 6xHis huPD-L1, OD 450 nm. Here is the method: as §2, §3
In general terms: An ELISA detects its analyte on a solid surface through an enzyme-linked reagent.

The target in experiment [5] is T4, 6xHis-tagged huPD-L1. Kind of experiment: ELISA, plate-coated human PD-L1 (1 µg/mL), OD 450 nm, B7 ligand specificity panel. The protocol:
as §2
(§4) Briefly, wells of a 96-well plate (Corning 3690) were incubated with 30 μL human PD-L1 (RD Systems 9049-B7), human PD-L2 (RD Systems 9075-PL), human B7-1/CD80 (RD Systems 9050-B1), human B7-2/CD86 (RD Systems 9090-B2), human B7-H2 (RD Systems 8206-B7), or human B7-H3 (RD Systems 1949-B3), at a concentration of 1 μg/mL in PBS, overnight at 4C, to coat the wells with ligand. After washing and blocking steps, 30 μL of antibody at 8 concentrations ranging from 1 ng/mL to 3 mg/mL were added to the plate and incubated at room temperature for 1 hr. Bound human antibody was detected as described above.

Experiment [6] concerns the target T3, human PD-L1 expressed on cells. The experiment in a line: flow cytometry on unstimulated A431 cells (MFI against antibody concentration). Here is the method:
(§5) Approximately 2.5×10⁵ A431 squamous cell carcinoma cells were plated in a final volume of 50 μL FACS buffer (phosphate buffered saline, 1% fetal bovine serum, 5 mM EDTA) in 96-well plates. 50 μL 2× Zombie Violet (BioLegend) were added to each well, and the plates were incubated 20-30 minutes at room temperature, protected from light. After incubation, 150 μL FACS buffer were added to each well. The plates were centrifuged at 500×g for 5 minutes. The supernatant was removed, and the cell pellet were resuspended in 200 μL FACS buffer. The wash procedure was repeated for a total of 2-3 washes. […] After the cells were incubated with the primary anti-PD-L1 antibody 1 hour on ice, protected from light, 150 μL FACS buffer were added to each well. The plates were then centrifuged, the supernatant was removed, and the cells were resuspended in 250 μL FACS buffer three times. After the third wash, the cells were resuspended in 100 μL goat anti-human IgG-Alexa Fluor 488 secondary antibody, and incubated for 30 minutes on ice, protected from light. After 3 washes as previously described, the cells were resuspended in 200 μL FACS buffer. The cells were then analyzed using a CytoFLEX flow cytometer.
A general note: In flow cytometry, cells or beads pass a laser one at a time.

For experiment [7], the target named is T1, PD-L1-His (Acro Cat PDL-H5229). The experiment in a line: SPR (Biacore 4000), antibody captured on anti-human CM4 chip, PD-L1-His analyte, 37° C. Here is the method: as §1
Background: SPR reads the build-up and loss of mass on a sensor chip optically.

The target in experiment [8] is T3, human PD-L1 expressed on cells. Kind of experiment: flow cytometry, PD-L1-expressing CHO cells, MFI (FITC). The protocol:
Wild-type (wt) Chinese hamster ovary (CHO) cells (ATCC) and CHO cells engineered to express huPD-L1 (BPS Bioscience) were seeded at 200,000 cells in 50 μL FACS buffer (PBS containing 1% FBS and 5 mM EDTA) per well of a 96-well plate. Cell viability was assessed by adding 50 μL 2×Zombie Violet (BioLegend). Dead cell controls were also prepared and 2×Zombie violet was added. After incubating 20-30 minutes at room temperature, protected from light, 150 μL FACS buffer were added to each well. The plates were centrifuged, and the supernatant was aspirated. […] The plates were incubated 30 minutes on ice, protected from light. 150 μL FACS buffer were then added to each well and the plate was centrifuged. The supernatant was removed and the cells were washed three times in 200 μL FACS buffer. […] The cells were incubated 30 minutes on ice, protected from light. 150 μL FACS buffer were then added to each well and the plate was centrifuged. Supernatant was removed and the cells were washed twice with 200 μL FACS buffer. The cells were then resuspended in FACS buffer and analyzed by CytoFLEX using the appropriate channels. After gating for whole, single, live cells, the MFI in the APC channel (or FITC channel for human control samples) was normalized to the signal from hybridoma media alone (or isotype control for human control). MFI fold over media alone was determined for each clone supernatant tested.

Experiment [9] concerns the target T5, human PD-L2 (RD Systems 9075-PL) (human, UniProt Q9BQ51 20-219).
T5 sequence (looked up): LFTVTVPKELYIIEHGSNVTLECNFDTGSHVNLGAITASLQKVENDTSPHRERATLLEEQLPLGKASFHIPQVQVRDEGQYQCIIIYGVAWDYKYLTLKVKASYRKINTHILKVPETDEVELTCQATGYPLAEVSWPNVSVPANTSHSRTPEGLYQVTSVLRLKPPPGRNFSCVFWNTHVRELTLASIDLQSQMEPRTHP
Kind of experiment: ELISA, plate-coated human PD-L2 (1 µg/mL), OD 450 nm, B7 ligand specificity panel. Here is the method: as §2, §4

Experiment [10] has as its target T3, human PD-L1 expressed on cells. Kind of experiment: flow cytometry, IFN-γ-stimulated BxPC3 cells, MFI (FITC).
For experiment [11], the target named is T1, PD-L1-His (Acro Cat PDL-H5229). Kind of experiment: SPR (Biacore 4000) as in Example 3, conjugate captured, PD-L1-His analyte, 37° C. The protocol:
as §1
(§6) The binding affinities of the generated anti-PD-L1 conjugates were determined by surface plasmon resonance, as described in Example 3.

For experiment [12], the target named is T3, human PD-L1 expressed on cells. Kind of experiment: cell-based or functional assay. The source holds these as a separate data set.
The target is the same in experiment [13]. Kind of experiment: cell-based or functional assay. The source holds these as a separate data set.
Experiment [14] deals with T1, PD-L1-His (Acro Cat PDL-H5229). Kind of experiment: SPR (Biacore 4000) as in Example 3, conjugate captured, PD-L1-His analyte, 25° C. The protocol:
as §1, §6

For experiment [15], the target named is T3, human PD-L1 expressed on cells. The experiment in a line: flow cytometry on unstimulated A431 cells, 10 conjugate concentrations. The protocol:
as §5

The target is the same in experiment [16]. Kind of experiment: flow cytometry on unstimulated A431 cells, ratio of EC50 values. Here is the method:
as §5

Experiment [17] addresses T2, 6xHis-tagged cyPD-L1. The experiment in a line: ELISA, plate-coated 6xHis cyPD-L1, OD 450 nm. Here is the method:
as §2
The source holds these as a separate data set.

Experiment [18] concerns the target T3, human PD-L1 expressed on cells. Kind of experiment: flow cytometry, CHO-hPD-L1 cells, MFI (FITC).
For experiment [19] the target is unchanged. The experiment in a line: flow cytometry, IFN-γ-stimulated A431 cells, MFI (FITC).
The target in experiment [20] is T4, 6xHis-tagged huPD-L1. The experiment in a line: ELISA, plate-coated 6xHis huPD-L1, OD 450 nm. The protocol:
as §2
The source holds these as a separate data set.

Like-named read-outs stand apart in the source and are kept apart here.

T3 sequence (Q9NZQ7 19-290): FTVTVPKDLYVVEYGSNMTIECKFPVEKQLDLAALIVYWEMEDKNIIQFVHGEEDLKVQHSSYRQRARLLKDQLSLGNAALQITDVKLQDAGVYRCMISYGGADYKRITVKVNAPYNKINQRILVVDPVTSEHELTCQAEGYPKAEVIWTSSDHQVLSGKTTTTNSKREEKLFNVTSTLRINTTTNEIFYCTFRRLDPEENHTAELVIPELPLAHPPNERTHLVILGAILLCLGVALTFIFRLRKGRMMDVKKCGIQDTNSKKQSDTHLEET
T1 sequence (Q9NZQ7 19-238 limits assumed): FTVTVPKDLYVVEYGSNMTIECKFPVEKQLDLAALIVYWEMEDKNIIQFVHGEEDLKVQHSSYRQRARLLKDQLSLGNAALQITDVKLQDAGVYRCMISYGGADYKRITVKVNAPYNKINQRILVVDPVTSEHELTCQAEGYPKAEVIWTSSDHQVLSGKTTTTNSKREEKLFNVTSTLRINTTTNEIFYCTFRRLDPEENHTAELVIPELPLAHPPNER
T4 sequence (Q9NZQ7 19-238): as the sequence (Q9NZQ7 19-238 limits assumed) above
T2 sequence (Q9NZQ7 other isoform, or with tags, fused parts or gaps): as the sequence (Q9NZQ7 19-238 limits assumed) above, with A33T, A34S, S62N, R68Q, Q82R, F173L, T185A, T192I, H215L counted along it

B1: 1P4 (antibody, V domains shown)
VH: QVQLVESGGGVVQPGRSLRLSCAASGFTFSNYGMHWVRQAPGKGLEWVSLILYDGSNKYYADSVKGRFTISRDNSKNTLYLQMNSLRAEDTAVYYCARDRVWLDVWGKGTTVTVSS
VL: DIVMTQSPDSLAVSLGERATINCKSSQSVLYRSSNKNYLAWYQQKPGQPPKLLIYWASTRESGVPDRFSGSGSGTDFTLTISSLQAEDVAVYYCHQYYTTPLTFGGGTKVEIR
notes: Recombinant full-length human antibody expressed in CHO K1 GS KO cells, with wild-type human Fc; also called anti-PD-L1 antibody 1P4; Unconj; 1P4
The Kd is the constant that tells how readily two partners part at equilibrium. High values mean a looser complex, low ones a tighter complex. The koff is the rate constant with which the complex falls apart. Lower therefore signals a long-lived complex. Broadly, the kon is the rate constant with which the complex forms. Lower therefore signals slow association. As a reminder, the EC50 is the concentration that produces a half-maximal response. A low value points to greater potency. B1: the Kd in [1] was found to be 18 nM; in experiment [7] it was 27 nM. Moreover, the values for the koff in experiment [1] and in experiment [7] were 0.0045 s⁻¹ and 0.0097 s⁻¹, respectively. Moreover, the figures for the kon in experiment [1] and in experiment [7] were 250000 M⁻¹ s⁻¹ and 360000 M⁻¹ s⁻¹, respectively. Besides, the EC50 with 6xHis-tagged cyPD-L1 [2] stood at 0.0306 µg/mL; with 6xHis-tagged huPD-L1 [4] it was 0.0399 µg/mL; with 6xHis-tagged huPD-L1 [5], 0.478 µg/mL; in [6] it was 0.0415 µg/mL; in experiment [8], 0.0457 µg/mL; in experiment [9], 5.76 µg/mL. Moreover, in [3], the “EC50 of luminescence (RLU), PD-1:PD-L1 Blockade Bioassay (PD-L1 aAPC/CHO-K1 cells with PD-1 Effector Jurkat NFAT-luciferase cells)” value came out at 0.25 µg/mL.

B2: 1P9-IR700 (antibody, V domains shown)
VH: EVQLVESGGGLVQPGGSLRLSCAASGFTFSTYWMSWVRQAPGKGLEWVANIKQDGGERYYVDSVKGRFTISRDNAKSSLYLQMNSLRAEDTALYYCARLRLYSDYEDYWGQGTLVTVSS
VL: DIQMTQSPSSVSASVGDRVTITCRASQGISSWLAWYQQKPGKAPKLLIYSVSSLQSGVPSRFSGSGSGTDFTLTISSLQPEDSATYYCQQANSLPPTFGGGTKVEIK
modifications: IRDye 700DX (IR700) attached via NHS ester; sites not stated; IRDye 700DX (IR700) attached via NHS ester; sites not stated; DAR 2.5 per antibody
notes: also called 1P9-IR700 conjugate; anti-PD-L1-IR700 conjugate
On to B2, for which the EC50 amounted to 0.0439 µg/mL in experiment [10]; 0.0129 µg/mL in experiment [15]; 0.0542 µg/mL with 6xHis-tagged cyPD-L1 [17]; 0.0151 µg/mL in [18]; 0.046 µg/mL in experiment [19]; 0.0156 µg/mL in experiment [8]. In the experiment with 6xHis-tagged huPD-L1 [20], this molecule had an EC50 of 0.0636 µg/mL. Besides, the Kd came out at 0.97 nM in experiment [11] and 0.26 nM in experiment [14]. The koff in [11] was 0.00038 s⁻¹; in experiment [14] it was 5.4e-05 s⁻¹. The kon is 390000 M⁻¹ s⁻¹ in [11] and 210000 M⁻¹ s⁻¹ in experiment [14]. The “EC50 of photoimmunotherapy-induced killing of A431 cells (Cell Tox Green, 128 J/cm^2)” value in experiment [12] was 0.0124 µg/mL. The “EC50 of luminescence (RLU), PD-1:PD-L1 Blockade Bioassay (PD-L1 aAPC/CHO-K1 cells with PD-1 Effector Jurkat NFAT-luciferase cells)” value in [13] amounted to 0.161 µg/mL. In experiment [16], the “fold potency against avelumab-IR700” value was ~23 fold.
